± gives the uncertainty stated by the source.
Test: self-splicing fitness, log relative to wild type (ln ratio); higher = more splicing; Tetrahymena group I intron in knt gene, E. coli kanamycin selection, DiMSum; sequences stand for … in CUCUCU…GGAGGGAAAAGUUAUCAGGCAUGCACCUGGUAGCUAGUCUUUAAACCAAUAGAUUGCAUCGGUUUAAAAGGCAAGACCGUCAAAUUGCGGGAAAGGGGUCAACAGCCGUUCAGUACCAAGUCUCAGGGGAAACUUUGAGAUGGCCUUGCAAAGGGUAUGGUAAUAAGCUGACGGACAUGGUCCUAACCACGCAGCCAAGUCCUAAGUCAACAGAUCUUCUGUUGAUAUGGAUGCAGUUCACAGACUAAAUGUCGGUCGGGGAAGAUGUAUUCUUCUCAUAAGAUAUAGUCGGACCUCUCCUUAAUGGGAGCUAGCGGAUGAAGUGAUGCAACACUGGAGCCGCUGGGAACUAAUUUGUAUGCGAAAGUAUAUUGAUUAGUUUUGGAGUACUCGUGGUCG
In short: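 A randomised library covering all eight P1ex-region intron nucleotides was built with the intron in the knt kanamycin-resistance gene on pET-22b(+) and held in E. coli BL21(DE3). Cells were grown overnight at 37°C or 30°C on LB agar, with or without 25 μg/mL kanamycin, plus 100 μg/mL carbenicillin, 50 μM IPTG and 0.2% rhamnose, and pooled colonies were amplicon-sequenced on an Illumina HiSeq 2500. DiMSum fitness is the error-weighted combination of wild-type-normalised replicate fold changes, kanamycin versus none.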

GGAAAGCAAUAUUACGGUUC
self-splicing fitness (ln) (30 °C): -3.33 ± 0.43
self-splicing fitness (ln) (37 °C): -2.23 ± 0.49

GGAAAGCAAUAUUACGUAAU
self-splicing fitness (ln) (30 °C): -1.3 ± 0.07
self-splicing fitness (ln) (37 °C): -1.23 ± 0.12

GGACAGCAAUAUUACGAGCC
self-splicing fitness (ln) (30 °C): -1.49 ± 0.15
self-splicing fitness (ln) (37 °C): -2.56 ± 0.25

GGACAGCAAUAUUACGAGUG
self-splicing fitness (ln) (30 °C): -3.32 ± 0.17
self-splicing fitness (ln) (37 °C): -1.79 ± 0.15

GGACAGCAAUAUUACGAUAC
self-splicing fitness (ln) (30 °C): -0.672 ± 0.084
self-splicing fitness (ln) (37 °C): -0.478 ± 0.098

GGACAGCAAUAUUACGAUCA
self-splicing fitness (ln) (30 °C): -0.381 ± 0.087
self-splicing fitness (ln) (37 °C): 0.0425 ± 0.11

GGACAGCAAUAUUACGCAAG
self-splicing fitness (ln) (30 °C): -1.69 ± 0.11
self-splicing fitness (ln) (37 °C): -1.41 ± 0.12

GGACAGCAAUAUUACGCACG
self-splicing fitness (ln) (30 °C): -0.391 ± 0.084
self-splicing fitness (ln) (37 °C): 0.295 ± 0.1

GGACAGCAAUAUUACGCAUG
self-splicing fitness (ln) (30 °C): -0.84 ± 0.085
self-splicing fitness (ln) (37 °C): -0.235 ± 0.11

GGACAGCAAUAUUACGCAUU
self-splicing fitness (ln) (30 °C): -0.834 ± 0.062
self-splicing fitness (ln) (37 °C): -0.622 ± 0.078

GGACAGCAAUAUUACGCCGA
self-splicing fitness (ln) (30 °C): -0.609 ± 0.11
self-splicing fitness (ln) (37 °C): -0.306 ± 0.12

GGACAGCAAUAUUACGCCGC
self-splicing fitness (ln) (37 °C): -1.06 ± 0.5

GGACAGCAAUAUUACGCCGG
self-splicing fitness (ln) (30 °C): -3.95 ± 0.48
self-splicing fitness (ln) (37 °C): -2.11 ± 0.32

GGACAGCAAUAUUACGCCUC
self-splicing fitness (ln) (30 °C): -0.953 ± 0.32
self-splicing fitness (ln) (37 °C): -0.751 ± 0.3

GGACAGCAAUAUUACGCCUG
self-splicing fitness (ln) (30 °C): -2.65 ± 0.15
self-splicing fitness (ln) (37 °C): -0.758 ± 0.13

GGACAGCAAUAUUACGCGAU
self-splicing fitness (ln) (30 °C): -2.52 ± 0.17
self-splicing fitness (ln) (37 °C): -2.52 ± 0.17

GGACAGCAAUAUUACGCGCG
self-splicing fitness (ln) (30 °C): 0.181 ± 0.094
self-splicing fitness (ln) (37 °C): -0.742 ± 0.11

GGACAGCAAUAUUACGCUCG
self-splicing fitness (ln) (30 °C): -0.123 ± 0.086
self-splicing fitness (ln) (37 °C): -0.0297 ± 0.11

GGACAGCAAUAUUACGCUCU
self-splicing fitness (ln) (30 °C): -2.19 ± 0.25

GGACAGCAAUAUUACGCUGU
self-splicing fitness (ln) (30 °C): -2.73 ± 0.21
self-splicing fitness (ln) (37 °C): -2.96 ± 0.31

GGACAGCAAUAUUACGGAGA
self-splicing fitness (ln) (30 °C): -2.98 ± 0.15
self-splicing fitness (ln) (37 °C): -2.61 ± 0.2

GGACAGCAAUAUUACGGGAU
self-splicing fitness (ln) (30 °C): -2.05 ± 0.087
self-splicing fitness (ln) (37 °C): -0.814 ± 0.1

GGACAGCAAUAUUACGGGGA
self-splicing fitness (ln) (30 °C): -2.72 ± 0.16
self-splicing fitness (ln) (37 °C): -3.05 ± 0.26

GGACAGCAAUAUUACGGGUA
self-splicing fitness (ln) (30 °C): -2.33 ± 0.11
self-splicing fitness (ln) (37 °C): -1.67 ± 0.093

GGACAGCAAUAUUACGGUGA
self-splicing fitness (ln) (30 °C): -0.838 ± 0.063
self-splicing fitness (ln) (37 °C): -0.167 ± 0.071

GGACAGCAAUAUUACGGUUC
self-splicing fitness (ln) (30 °C): -3.64 ± 0.15
self-splicing fitness (ln) (37 °C): -1.82 ± 0.14

GGACAGCAAUAUUACGUGGG
self-splicing fitness (ln) (30 °C): -2.49 ± 0.12
self-splicing fitness (ln) (37 °C): -2.28 ± 0.12

GGACAGCAAUAUUACGUUCG
self-splicing fitness (ln) (30 °C): -0.223 ± 0.076
self-splicing fitness (ln) (37 °C): 0.0323 ± 0.095

GGACAGCAAUAUUACGUUGG
self-splicing fitness (ln) (30 °C): -1.69 ± 0.088
self-splicing fitness (ln) (37 °C): -0.723 ± 0.11

GGAGAGCAAUAUUACGAAAC
self-splicing fitness (ln) (30 °C): -2.48 ± 0.29
self-splicing fitness (ln) (37 °C): -1.36 ± 0.47

GGAGAGCAAUAUUACGACCU
self-splicing fitness (ln) (30 °C): -1.9 ± 0.24
self-splicing fitness (ln) (37 °C): -0.666 ± 0.26

GGAGAGCAAUAUUACGACGU
self-splicing fitness (ln) (30 °C): -1.29 ± 0.2
self-splicing fitness (ln) (37 °C): -0.823 ± 0.25

GGAGAGCAAUAUUACGAGAG
self-splicing fitness (ln) (30 °C): -3.07 ± 0.25
self-splicing fitness (ln) (37 °C): -2.31 ± 0.33

GGAGAGCAAUAUUACGAGGC
self-splicing fitness (ln) (30 °C): -2.83 ± 0.23
self-splicing fitness (ln) (37 °C): -1.95 ± 0.37

GGAGAGCAAUAUUACGCACU
self-splicing fitness (ln) (30 °C): -2.77 ± 0.49
self-splicing fitness (ln) (37 °C): -1.94 ± 0.46

GGAGAGCAAUAUUACGCGCU
self-splicing fitness (ln) (30 °C): -2.69 ± 0.25
self-splicing fitness (ln) (37 °C): -1.67 ± 0.28

GGAGAGCAAUAUUACGCGGU
self-splicing fitness (ln) (30 °C): -3.77 ± 0.47

GGAGAGCAAUAUUACGCUAG
self-splicing fitness (ln) (30 °C): -1.3 ± 0.36
self-splicing fitness (ln) (37 °C): -0.901 ± 0.42

GGAGAGCAAUAUUACGGGGA
self-splicing fitness (ln) (30 °C): -3.31 ± 0.49

GGAGAGCAAUAUUACGGGUA
self-splicing fitness (ln) (30 °C): -3.5 ± 0.28
self-splicing fitness (ln) (37 °C): -2.62 ± 0.2

GGAGAGCAAUAUUACGGUAC
self-splicing fitness (ln) (30 °C): -3.27 ± 0.5
self-splicing fitness (ln) (37 °C): -2.07 ± 0.24

GGAGAGCAAUAUUACGUAAU
self-splicing fitness (ln) (37 °C): -0.814 ± 0.2

GGAGAGCAAUAUUACGUAGC
self-splicing fitness (ln) (37 °C): -0.906 ± 0.37

GGAGAGCAAUAUUACGUCUG
self-splicing fitness (ln) (30 °C): -1.13 ± 0.2
self-splicing fitness (ln) (37 °C): -0.491 ± 0.25

GGAGAGCAAUAUUACGUGCU
self-splicing fitness (ln) (30 °C): -2.88 ± 0.27

GGAGAGCAAUAUUACGUUUU
self-splicing fitness (ln) (30 °C): -3.36 ± 0.23
self-splicing fitness (ln) (37 °C): -1.15 ± 0.3

GGAUAGCAAUAUUACGAUCC
self-splicing fitness (ln) (30 °C): -1.95 ± 0.45

GGAUAGCAAUAUUACGCAAG
self-splicing fitness (ln) (30 °C): -1.28 ± 0.27
self-splicing fitness (ln) (37 °C): -0.103 ± 0.34

GGAUAGCAAUAUUACGCACG
self-splicing fitness (ln) (30 °C): -1.12 ± 0.16
self-splicing fitness (ln) (37 °C): -0.963 ± 0.15

GGAUAGCAAUAUUACGGACC
self-splicing fitness (ln) (30 °C): -0.822 ± 0.22
self-splicing fitness (ln) (37 °C): -0.154 ± 0.25

— the supplement of paper PMC7877785
